Results taken from the RNAGym collection of RNA variant scans (doi:10.1093/molbev/msab373).

B1: Azoarcus group I ribozyme (parent)
chain: GUGCCUUGCGCCGGGAAACCACGCAAGGGAUGGUGUCAAAUUCGGCGAAACCUAAGCGCCCGCCCGGGCGUAUGGCAACGCCGAGCCAAGCUUCGGCGCCUGCGCCGAUGAAGGUGUAGAGACUAGACGGCACCCACCUAAGGCAAACGCUAUGGUGAAGGCAUAGUCCAGGGAGUGGCGAAAGUCACACAAACCGG

Variants of: B1
Assay: reverse-splicing fitness (ratio to wild type); higher = more active; in vitro selection; Mg2+ level not given
How it was run: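 An in vitro group I ribozyme library with randomized positions was T7-transcribed and gel-purified. In triplicate, 10 pmol RNA in EPPS pH 7.5 was reacted with 50 pmoles of a 30-nt RNA substrate for 1 h at 37 °C across several added MgCl2 levels (1–48 mM), then stopped with EDTA. Products were reverse transcribed from a substrate-complementary primer, PCR-amplified and sequenced (HiSeq 4000). Fitness is a variant's read proportion after selection over that before, normalised to wild type.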

Row | Variant | reverse-splicing fitness
1 | C82A A145C C150G C169U U176G | 0.00534
2 | C82A A145U C150G U176C | 0.0521
3 | C82A A145U C150G U176G | 0.0081
4 | C82A A145U C150G U176A | 0.0365
5 | C82A A145U C150A C169A U176G | 0.0053
6 | C82A A145U C150A C169A U176C | 0.0105
7 | C82A A145U C150A C169A U176A | 0.0129
8 | C82G A111C A120C A145C C150G C169G | 0.00653
9 | C82G A111C A120C A145C C150G C169U | 0.00944
10 | C82G A111C A120C A145C C150G C169A | 0.00859
11 | C82A A145C C150A C169U U176G | 0.00553
12 | C82A A145C C150A C169U U176C | 0.00759
13 | C82A A145C C150A C169U U176A | 0.015
14 | C82A A145C C150U C169U U176G | 0.00481
15 | C82A A145C C150U C169U U176C | 0.00806
16 | C82A A145C C150U C169U U176A | 0.0125
17 | C82A A145G C150A U176C | 0.0855
18 | C82A A145G C150A U176G | 0.0222
19 | C82A A145G C150A U176A | 0.0679
20 | C82A A145U C150A | 0.0549
21 | C82A A145U C150U | 0.449
22 | C82A A145U C150G | 0.0675
23 | C82A C150G U176G | 0.0062
24 | C82A C150G U176A | 0.0245

Row | Variant | reverse-splicing fitness
25 | C82A C150G U176C | 0.0393
26 | C82A A145U C150U U176G | 0.0823
27 | C82A A145U C150U U176A | 0.273
28 | C82A A145U C150U U176C | 0.324
29 | C82A C150G C169U U176A | 0.00724
30 | C82A C150G C169U U176G | 0.00641
31 | C82A C150G C169U U176C | 0.0109
32 | C82A A145U U176A | 0.386
33 | C82A A145U U176G | 0.157
34 | C82A A145U U176C | 0.482
35 | C82A A145U C150A C169G U176C | 0.0131
36 | C82A A145U C150A C169G U176G | 0.0059
37 | C82A A145U C150A C169G U176A | 0.0139
38 | C82A A145G C150G C169A U176C | 0.0124
39 | C82A A145G C150G C169A U176A | 0.015
40 | C82A A145G C150G C169A U176G | 0.00857
41 | C82A A145G C150G C169U | 0.00998
42 | C82A A145G C150G C169G | 0.00856
43 | C82A A145G C150G C169A | 0.00856
44 | C82A A145U | 0.635
45 | C82A A145G | 0.631
46 | C82A A145C | 0.586
47 | C82A C150U C169G | 0.0106
48 | C82A C150U C169A | 0.0105

Row | Variant | reverse-splicing fitness
49 | C82A C150U C169U | 0.0139
50 | C82A A120U C169A U176G | 0.00137
51 | C82A A120U C169A U176A | 0.00254
52 | C82A A120U C169A U176C | 0.00197
53 | C82A C150U C169A U176A | 0.0169
54 | C82A C150U C169A U176C | 0.0144
55 | C82A C150U C169A U176G | 0.00593
56 | C82A A145U C169G | 0.00976
57 | C82A A145U C169U | 0.0136
58 | C82A A145U C169A | 0.0085
59 | C82A A145C C150G C169G | 0.00828
60 | C82A A145C C150G C169A | 0.00909
61 | C82A A145C C150G C169U | 0.00817
62 | C82A A120U C150G C169U U176G | 0.00296
63 | C82A A120U C150G C169U U176C | 0.00369
64 | C82A A120U C150G C169U U176A | 0.00325
65 | C82A C150A C169G U176G | 0.0072
66 | C82A C150A C169G U176C | 0.0241
67 | C82A C150A C169G U176A | 0.0198
68 | C82A A145C C150G C169G U176A | 0.00895
69 | C82A A145C C150G C169G U176G | 0.00508
70 | C82A A145C C150G C169G U176C | 0.0067
71 | C82A A145G C150U C169G | 0.0117
72 | C82A A145G C150U C169U | 0.0162

Row | Variant | reverse-splicing fitness
73 | C82A A145G C150U C169A | 0.0115
74 | C82A A145C C150G U176C | 0.0535
75 | C82A A145C C150G U176G | 0.00808
76 | C82A A145C C150G U176A | 0.0383
77 | C82A C150G C169U | 0.00995
78 | C82A C150G C169G | 0.00738
79 | C82A C150G C169A | 0.00934
80 | C82A A145U C150G C169G U176A | 0.00926
81 | C82A A145U C150G C169G U176G | 0.0053
82 | C82A A145U C150G C169G U176C | 0.00607
83 | C82A A120U C150U C169A U176G | 0.00226
84 | C82A A120U C150U C169A U176C | 0.00357
85 | C82A A120U C150U C169A U176A | 0.00392
86 | C82A A145G C150A C169U | 0.0112
87 | C82A A145G C150A C169A | 0.0108
88 | C82A A145G C150A C169G | 0.00939
89 | C82A C169G U176G | 0.00442
90 | C82A C169G U176A | 0.0139
91 | C82A C169G U176C | 0.0234
92 | C82G A111C A120C A145C C150G C169G U176A | 0.00984
93 | C82G A111C A120C A145C C150G C169G U176C | 0.00983
94 | C82G A111C A120C A145C C150G C169G U176G | 0.00608
95 | C82A A120U C150U C169G | 0.00546
96 | C82A A120U C150U C169U | 0.00643

Row | Variant | reverse-splicing fitness
97 | C82A A120U C150U C169A | 0.00439
98 | C82A C150G C169G U176G | 0.00581
99 | C82A C150G C169G U176C | 0.00553
100 | C82A C150G C169G U176A | 0.00711
101 | C82A A120U C150G C169G U176A | 0.00506
102 | C82A A120U C150G C169G U176G | 0.00232
103 | C82A A120U C150G C169G U176C | 0.00251
104 | C82A A145U C150G C169U U176C | 0.0116
105 | C82A A145U C150G C169U U176G | 0.00595
106 | C82A A145U C150G C169U U176A | 0.00877
107 | C82A A145U C150U C169A U176C | 0.00936
108 | C82A A145U C150U C169A U176A | 0.0121
109 | C82A A145U C150U C169A U176G | 0.00602
110 | C82A A145C C150A C169G U176G | 0.00671
111 | C82A A145C C150A C169G U176C | 0.0122
112 | C82A A145C C150A C169G U176A | 0.0232
113 | C82A A145C C150G | 0.0739
114 | C82A A145C C150A | 0.0312
115 | C82A A145C C150U | 0.151
116 | C82A A145C C150A C169A | 0.00702
117 | C82A A145C C150A C169G | 0.00755
118 | C82A A145C C150A C169U | 0.00913
119 | C82G A111C A120C A145C C150A C169U U176A | 0.0176
120 | C82G A111C A120C A145C C150A C169U U176C | 0.0123

Row | Variant | reverse-splicing fitness
121 | C82G A111C A120C A145C C150A C169U U176G | 0.00799
122 | C82A C150A C169U U176G | 0.00672
123 | C82A C150A C169U U176C | 0.0166
124 | C82A C150A C169U U176A | 0.0152
125 | C82A A145C C150U U176A | 0.101
126 | C82A A145C C150U U176G | 0.0335
127 | C82A A145C C150U U176C | 0.113
128 | C82G | 0.499
129 | C82A A120U C169G U176A | 0.00261
130 | C82A A120U C169G U176G | 0.00153
131 | C82A A120U C169G U176C | 0.00323
132 | C82A C169U U176A | 0.0166
133 | C82A C169U U176C | 0.0153
134 | C82A C169U U176G | 0.00459
135 | C82A A145G C169U U176C | 0.0143
136 | C82A A145G C169U U176G | 0.00459
137 | C82A A145G C169U U176A | 0.0146
138 | C82A U176A | 0.407
139 | C82A U176C | 0.484
140 | C82A U176G | 0.12
141 | C82A C169A | 0.00967
142 | C82A C169U | 0.0153
143 | C82A C169G | 0.00961
144 | C82A C150A C169A U176G | 0.007

Row | Variant | reverse-splicing fitness
145 | C82A C150A C169A U176C | 0.0177
146 | C82A C150A C169A U176A | 0.0211
147 | C82A A120U C150G C169U | 0.00543
148 | C82A A120U C150G C169A | 0.00708
149 | C82A A120U C150G C169G | 0.00634
150 | C82A A145G C150U C169G U176G | 0.00547
151 | C82A A145G C150U C169G U176A | 0.0138
152 | C82A A145G C150U C169G U176C | 0.02
153 | C82A A145U C169G U176A | 0.0105
154 | C82A A145U C169G U176C | 0.0127
155 | C82A A145U C169G U176G | 0.00461
156 | C82A A145C U176C | 0.44
157 | C82A A145C U176G | 0.129
158 | C82A A145C U176A | 0.346
159 | C82G A111C | 0.281
160 | C82G A111C A120C A145C C150A C169G | 0.00859
161 | C82G A111C A120C A145C C150A C169A | 0.00796
162 | C82G A111C A120C A145C C150A C169U | 0.0113
163 | C82G A111C A120C A145C C150A | 0.00907
164 | C82G A111C A120C A145C C150G | 0.0093
165 | C82A A145G C169G | 0.0111
166 | C82A A145G C169U | 0.0161
167 | C82A A145G C169A | 0.0112
